Patent US20170037124A1

What was measured:
Test in all cases: SPR, blank anti-hFc surface, 500 nM peptide, 25C
[1] = biological target: human ANGPTL8 peptide (hANGPTL8 peptide, SEQ ID NO: 337) (human)
[2] = biological target: peptide from the N-terminal coiled-coil region of human ANGPTL3 (hANGPTL3 peptide, SEQ ID NO: 338) (human)
[3] = biological target: peptide from the N-terminal coiled-coil region of human ANGPTL4 (hANGPTL4 peptide, SEQ ID NO: 339) (human)
peptide from the N-terminal coiled-coil region of human ANGPTL4 (hANGPTL4 peptide, SEQ ID NO: 339) (human), sequence (peptide, as listed by the source): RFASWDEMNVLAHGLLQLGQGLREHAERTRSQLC

peptide from the N-terminal coiled-coil region of human ANGPTL3 (hANGPTL3 peptide, SEQ ID NO: 338) (human), sequence (peptide, as listed by the source): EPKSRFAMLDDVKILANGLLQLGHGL
human ANGPTL8 peptide (hANGPTL8 peptide, SEQ ID NO: 337) (human), sequence (peptide, as listed by the source): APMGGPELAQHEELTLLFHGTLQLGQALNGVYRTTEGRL

500 nM hANGPTL8 peptide Bound (RU) [1]: 3 RU
500 nM hANGPTL3 peptide Bound (RU) [2]: 0 RU
500 nM hAngPTL4 peptide Bound (RU) [3]: 0 RU
Substance: monoclonal mouse anti-human Fc antibody (GE, # BR-1008-39)
